The text below walks through data of IntAct's records for PubMed 35512704.

B1: Speckle-type POZ protein (Homo sapiens), O43791 (parent)
chain: MSRVPSPPPPAEMSSGPVAESWCYTQIKVVKFSYMWTINNFSFCREEMGEVIKSSTFSSGANDKLKWCLRVNPKGLDEESKDYLSLYLLLVSCPKSEVRAKFKFSILNAKGEETKAMESQRAYRFVQGKDWGFKKFIRRDFLLDEANGLLPDDKLTLFCEVSVVQDSVNISGQNTMNMVKVPECRLADELGGLWENSRFTDCCLCVAGQEFQAHKAILAARSPVFSAMFEHEMEESKKNRVEINDVEPEVFKEMMCFIYTGKAPNLDKMADDLLAAADKYALERLKVMCEDALCSNLSVENAAEILILADLHSADQLKTQAVDFINYHASDVLETSGWKSMVVSHPHLVAEAYRSLASAQCPFLGPPRKRLKQS
partner: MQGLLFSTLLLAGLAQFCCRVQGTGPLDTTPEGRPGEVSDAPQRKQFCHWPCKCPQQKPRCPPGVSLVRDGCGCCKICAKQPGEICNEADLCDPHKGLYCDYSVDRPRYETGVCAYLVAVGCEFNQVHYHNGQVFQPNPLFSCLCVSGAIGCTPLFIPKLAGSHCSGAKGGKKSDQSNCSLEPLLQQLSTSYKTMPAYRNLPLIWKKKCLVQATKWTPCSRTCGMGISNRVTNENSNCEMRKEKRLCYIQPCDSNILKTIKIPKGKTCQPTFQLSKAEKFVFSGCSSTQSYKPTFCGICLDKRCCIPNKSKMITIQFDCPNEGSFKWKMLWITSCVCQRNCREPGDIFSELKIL
B2: Speckle-type POZ protein (Homo sapiens), O43791 (parent)
chain: B1 chain
partner: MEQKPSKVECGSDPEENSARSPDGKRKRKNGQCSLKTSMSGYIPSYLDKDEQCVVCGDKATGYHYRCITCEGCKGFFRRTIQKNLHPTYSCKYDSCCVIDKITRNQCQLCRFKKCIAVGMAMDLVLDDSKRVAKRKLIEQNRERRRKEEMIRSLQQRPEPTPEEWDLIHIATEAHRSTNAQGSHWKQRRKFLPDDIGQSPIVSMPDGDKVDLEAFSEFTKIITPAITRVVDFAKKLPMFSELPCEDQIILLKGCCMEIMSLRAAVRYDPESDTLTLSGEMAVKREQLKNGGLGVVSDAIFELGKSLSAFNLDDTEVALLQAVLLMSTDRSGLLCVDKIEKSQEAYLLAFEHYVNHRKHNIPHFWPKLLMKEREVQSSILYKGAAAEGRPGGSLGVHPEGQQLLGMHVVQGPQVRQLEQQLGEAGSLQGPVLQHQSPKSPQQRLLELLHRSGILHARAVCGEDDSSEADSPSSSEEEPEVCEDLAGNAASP
B3: Speckle-type POZ protein (Homo sapiens), O43791 (parent)
chain: B1 chain
partner: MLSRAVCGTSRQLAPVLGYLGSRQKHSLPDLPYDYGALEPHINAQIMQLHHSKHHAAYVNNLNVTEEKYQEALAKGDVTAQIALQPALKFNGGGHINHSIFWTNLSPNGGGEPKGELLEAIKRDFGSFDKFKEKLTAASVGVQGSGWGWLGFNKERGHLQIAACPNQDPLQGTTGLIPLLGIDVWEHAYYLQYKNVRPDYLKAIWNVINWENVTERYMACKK
B4: Speckle-type POZ protein (Homo sapiens), O43791 (parent)
chain: B1 chain
partner: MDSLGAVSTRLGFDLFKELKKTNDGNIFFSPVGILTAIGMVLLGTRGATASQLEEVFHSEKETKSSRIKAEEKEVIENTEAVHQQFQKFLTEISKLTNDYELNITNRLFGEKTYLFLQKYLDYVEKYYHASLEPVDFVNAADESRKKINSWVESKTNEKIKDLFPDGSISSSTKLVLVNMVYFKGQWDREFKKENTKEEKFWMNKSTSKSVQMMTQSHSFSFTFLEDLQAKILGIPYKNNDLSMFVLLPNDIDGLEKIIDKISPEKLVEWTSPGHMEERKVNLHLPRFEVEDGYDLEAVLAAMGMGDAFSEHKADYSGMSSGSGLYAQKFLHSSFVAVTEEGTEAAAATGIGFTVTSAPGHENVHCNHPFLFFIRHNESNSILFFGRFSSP
B5: Speckle-type POZ protein (Homo sapiens), O43791 (parent)
chain: B1 chain
partner: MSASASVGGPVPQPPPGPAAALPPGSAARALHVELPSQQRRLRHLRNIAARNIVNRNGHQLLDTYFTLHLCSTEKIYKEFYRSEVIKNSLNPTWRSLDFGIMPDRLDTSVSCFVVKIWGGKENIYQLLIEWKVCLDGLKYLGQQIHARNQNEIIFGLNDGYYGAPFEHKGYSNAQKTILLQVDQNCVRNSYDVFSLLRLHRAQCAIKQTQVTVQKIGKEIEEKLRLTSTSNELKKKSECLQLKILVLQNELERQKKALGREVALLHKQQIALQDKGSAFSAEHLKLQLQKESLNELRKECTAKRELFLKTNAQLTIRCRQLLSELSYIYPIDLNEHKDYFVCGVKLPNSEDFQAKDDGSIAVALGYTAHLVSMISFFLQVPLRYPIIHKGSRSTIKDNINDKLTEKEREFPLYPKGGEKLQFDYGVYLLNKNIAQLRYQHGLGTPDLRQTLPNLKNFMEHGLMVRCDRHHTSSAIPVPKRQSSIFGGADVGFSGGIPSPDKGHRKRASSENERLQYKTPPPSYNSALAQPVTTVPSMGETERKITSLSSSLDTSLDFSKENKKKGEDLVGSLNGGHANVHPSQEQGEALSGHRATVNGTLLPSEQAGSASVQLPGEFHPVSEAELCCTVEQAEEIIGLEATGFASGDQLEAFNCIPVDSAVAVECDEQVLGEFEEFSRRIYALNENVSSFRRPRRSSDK

The variants in the first assay derive from B1. As to conditions: with ccn6_human CCN6, O95389.
F133V: the “effect of a mutation on the interaction” value is given as “with no effect”.

Variants of B1 are the subject of a further assay. As to conditions: with ccn6_human CCN6, O95389. The source holds these as a separate data set.
With Y87C, the “effect of a mutation on the interaction” value is recorded as “with no effect”.

Variants of B1 are the subject of another assay. Particulars: with ccn6_human CCN6, O95389. This is another data set of the same source.
Turning to F102C, the “effect of a mutation on the interaction” value is listed as “with no effect”.

The variants in the next assay derive from B2. Particulars: with tha_human THRA.
Y87C: the “effect of a mutation on the interaction” value is “with no effect”.

Variants of B2 are the subject of a further assay. As to conditions: with tha_human THRA. This is another data set of the same source.
As for F102C, the “effect of a mutation on the interaction” value is on record as “with no effect”.

Variants of B2 are the subject of a further assay. As to conditions: with tha_human THRA. The source holds these as a separate data set.
For F133L, the “effect of a mutation on the interaction” value is “with no effect”.

A further assay covers variants of B2. As to conditions: with tha_human THRA. This is another data set of the same source.
For F133V, the “effect of a mutation on the interaction” value was “with no effect”.

Variants of B3 are the subject of the next assay. As to conditions: with sodm_human SOD2, P04179.
Y87C: the “effect of a mutation on the interaction” value is listed as “with no effect”.

The variants in the next assay derive from B3. Particulars: with sodm_human SOD2, P04179. The source holds these as a separate data set.
In the case of F133V, the “effect of a mutation on the interaction” value was “with no effect”.

Variants of B3 are the subject of the next assay. As to conditions: with sodm_human SOD2, P04179. This is another data set of the same source.
Consider F133L, for which the “effect of a mutation on the interaction” value was “with no effect”.

In the next assay the parent is B3. As to conditions: with sodm_human SOD2, P04179. This is another data set of the same source.
Regarding F102C, the “effect of a mutation on the interaction” value is on record as “with no effect”.

In a further assay the parent is B4. Particulars: with spb13_human SERPINB13, Q9UIV8.
On to F102C, for which the “effect of a mutation on the interaction” value was “with no effect”.

The next assay covers variants of B4. Particulars: with spb13_human SERPINB13, Q9UIV8. This is another data set of the same source.
Turning to F133V, the “effect of a mutation on the interaction” value was “with no effect”.

A further assay covers variants of B4. Particulars: with spb13_human SERPINB13, Q9UIV8. This is another data set of the same source.
F133L: the “effect of a mutation on the interaction” value is recorded as “with no effect”.

Variants of B4 are the subject of a further assay. As to conditions: with spb13_human SERPINB13, Q9UIV8. The source holds these as a separate data set.
Take Y87C: the “effect of a mutation on the interaction” value was “with no effect”.

Another assay covers variants of B5. As to conditions: with uvrag_human UVRAG.
Take F102C: the “effect of a mutation on the interaction” value is “with no effect”.
